Positions count from the first letter of the chain named. Numbers in names are those of the source. Blank lines part the entries; values can stand above or below the binder they belong to.
Key:
[1] = target: binding partner of C5A (XPA23); experiment: Biacore
[2] = target: binding partner (antigen) of C5A (XPA23); experiment: Biacore, K-off, fold vs original

B1: C5A (XPA23) VH I51V (antibody, V domains shown)
VH: EVQLLESGGGLVQPGGSLRLSCAASGFTFSKYFMFWVRQAPGKGLEWVSVVSPSGGMTRYADSVKGRFTISRDNSKNTLYLQMNSLRAEDTAVYYCARVGYGGNSDYWGQGTLVTVSS
VL: DIQMTQSPSSVSASVGDRLTIICRASQDINRWLAWYQQTPGNAPKLLIHSATSLQSGVPSRFSGSGSGTDFTLTINSLQPEDFATYYCQQADSFPLTFGGGTKVEIK
fold difference in affinity vs original [1]: 0.99 fold
fold difference in affinity vs original [2]: 0.99 fold

B2: C5A (XPA23) VH I51L (antibody, V domains shown)
VH: B1 VH with V51L
VL: B1 VL
fold difference in affinity vs original [1]: 0.79 fold
fold difference in affinity vs original [2]: 0.79 fold

B4: C5A (XPA23) VH I51F (antibody, V domains shown)
VH: B1 VH with V51F
VL: B1 VL
fold affinity vs original [1]: 0.9 fold
fold difference in affinity vs original [2]: 0.9 fold

B5: C5A (XPA23) VH G56I (antibody, V domains shown)
VH: B1 VH with V51I, G56I
VL: B1 VL
fold difference in affinity vs original [1]: 1.71 fold
fold difference in affinity vs original [2]: 1.71 fold

B6: C5A (XPA23) VH M57I (antibody, V domains shown)
VH: B1 VH with V51I, M57I
VL: B1 VL
fold difference in affinity vs original [1]: 0.03 fold
fold difference in affinity vs original [2]: 0.03 fold

B10: C5A (XPA23) VH M57F (antibody, V domains shown)
VH: B1 VH with V51I, M57F
VL: B1 VL
fold affinity vs original [1]: 1.03 fold
fold difference in affinity vs original [2]: 1.03 fold

B13: C5A (XPA23) VH G55I (antibody, V domains shown)
VH: B1 VH with V51I, G55I
VL: B1 VL
fold difference in affinity vs original [1]: 0.86 fold
fold difference in affinity vs original [2]: 0.86 fold

B15: C5A (XPA23) VH G55L (antibody, V domains shown)
VH: B1 VH with V51I, G55L
VL: B1 VL
fold difference in affinity vs original [1]: 0.08 fold
fold difference in affinity vs original [2]: 0.08 fold

B18: C5A (XPA23) VH P53F (antibody, V domains shown)
VH: B1 VH with V51I, P53F
VL: B1 VL
fold affinity vs original [1]: 0.05 fold
fold difference in affinity vs original [2]: 0.05 fold

B21: C5A (XPA23) VH G56P (antibody, V domains shown)
VH: B1 VH with V51I, G56P
VL: B1 VL
fold difference in affinity vs original [1]: 0.85 fold
fold difference in affinity vs original [2]: 0.85 fold

B23: C5A (XPA23) VH G56W (antibody, V domains shown)
VH: B1 VH with V51I, G56W
VL: B1 VL
fold affinity vs original [1]: 1.51 fold
fold difference in affinity vs original [2]: 1.51 fold

B26: C5A (XPA23) VH P53I (antibody, V domains shown)
VH: B1 VH with V51I, P53I
VL: B1 VL
fold difference in affinity vs original [1]: 0.08 fold
fold difference in affinity vs original [2]: 0.08 fold

B27: C5A (XPA23) VH G56L (antibody, V domains shown)
VH: B1 VH with V51I, G56L
VL: B1 VL
fold difference in affinity vs original [1]: 1.41 fold
fold difference in affinity vs original [2]: 1.41 fold

B28: C5A (XPA23) VH M57A (antibody, V domains shown)
VH: B1 VH with V51I, M57A
VL: B1 VL
fold difference in affinity vs original [1]: 0.03 fold
fold difference in affinity vs original [2]: 0.03 fold

B29: C5A (XPA23) VH M57L (antibody, V domains shown)
VH: B1 VH with V51I, M57L
VL: B1 VL
fold difference in affinity vs original [1]: 0.06 fold
fold difference in affinity vs original [2]: 0.06 fold

B30: C5A (XPA23) VH M57V (antibody, V domains shown)
VH: B1 VH with V51I, M57V
VL: B1 VL
fold difference in affinity vs original [1]: 0.03 fold
fold difference in affinity vs original [2]: 0.03 fold

B33: C5A (XPA23) VH G56F (antibody, V domains shown)
VH: B1 VH with V51I, G56F
VL: B1 VL
fold affinity vs original [1]: 1.41 fold
fold difference in affinity vs original [2]: 1.41 fold

B37: C5A (XPA23) VH P53A (antibody, V domains shown)
VH: B1 VH with V51I, P53A
VL: B1 VL
fold difference in affinity vs original [1]: 0.05 fold
fold difference in affinity vs original [2]: 0.05 fold

B38: C5A (XPA23) VH P53G (antibody, V domains shown)
VH: B1 VH with V51I, P53G
VL: B1 VL
fold difference in affinity vs original [1]: 0.02 fold
fold difference in affinity vs original [2]: 0.02 fold

B39: C5A (XPA23) VH G56A (antibody, V domains shown)
VH: B1 VH with V51I, G56A
VL: B1 VL
fold difference in affinity vs original [1]: 1.21 fold
fold difference in affinity vs original [2]: 1.21 fold

Results, then the binder that gave them:

fold difference in affinity vs original [1]: 1.43 fold
fold difference in affinity vs original [2]: 1.43 fold
B3: C5A (XPA23) VH S54G (antibody, V domains shown)
VH: B1 VH with V51I, S54G
VL: B1 VL

fold difference in affinity vs original [1]: 0.03 fold
fold difference in affinity vs original [2]: 0.03 fold
B7: C5A (XPA23) VH S52G (antibody, V domains shown)
VH: B1 VH with V51I, S52G
VL: B1 VL

fold difference in affinity vs original [1]: 0.04 fold
fold difference in affinity vs original [2]: 0.04 fold
B8: C5A (XPA23) VH S52V (antibody, V domains shown)
VH: B1 VH with V51I, S52V
VL: B1 VL

fold difference in affinity vs original [1]: 0.95 fold
fold difference in affinity vs original [2]: 0.95 fold
B9: C5A (XPA23) VH T58I (antibody, V domains shown)
VH: B1 VH with V51I, T58I
VL: B1 VL

fold difference in affinity vs original [1]: 1 fold
fold difference in affinity vs original [2]: 1 fold
B11: C5A (XPA23) VH S54A (antibody, V domains shown)
VH: B1 VH with V51I, S54A
VL: B1 VL

fold difference in affinity vs original [1]: 0.05 fold
fold difference in affinity vs original [2]: 0.05 fold
B12: C5A (XPA23) VH S52A (antibody, V domains shown)
VH: B1 VH with V51I, S52A
VL: B1 VL

fold difference in affinity vs original [1]: 0.91 fold
fold difference in affinity vs original [2]: 0.91 fold
B14: C5A (XPA23) VH S54L (antibody, V domains shown)
VH: B1 VH with V51I, S54L
VL: B1 VL

fold difference in affinity vs original [1]: 0.99 fold
fold difference in affinity vs original [2]: 0.99 fold
B16: C5A (XPA23) VH T58V (antibody, V domains shown)
VH: B1 VH with V51I, T58V
VL: B1 VL

fold affinity vs original [1]: 0.05 fold
fold difference in affinity vs original [2]: 0.05 fold
B17: C5A (XPA23) VH P53W (antibody, V domains shown)
VH: B1 VH with V51I, P53W
VL: B1 VL

fold difference in affinity vs original [1]: 0.05 fold
fold difference in affinity vs original [2]: 0.05 fold
B19: C5A (XPA23) VH S52P (antibody, V domains shown)
VH: B1 VH with V51I, S52P
VL: B1 VL

fold affinity vs original [1]: 0.87 fold
fold difference in affinity vs original [2]: 0.87 fold
B20: C5A (XPA23) VH S54F (antibody, V domains shown)
VH: B1 VH with V51I, S54F
VL: B1 VL

fold difference in affinity vs original [1]: 0.14 fold
fold difference in affinity vs original [2]: 0.14 fold
B22: C5A (XPA23) VH T58A (antibody, V domains shown)
VH: B1 VH with V51I, T58A
VL: B1 VL

fold difference in affinity vs original [1]: 0.04 fold
fold difference in affinity vs original [2]: 0.04 fold
B24: C5A (XPA23) VH P53L (antibody, V domains shown)
VH: B1 VH with V51I, P53L
VL: B1 VL

fold difference in affinity vs original [1]: 0.95 fold
fold difference in affinity vs original [2]: 0.95 fold
B25: C5A (XPA23) VH T58G (antibody, V domains shown)
VH: B1 VH with V51I, T58G
VL: B1 VL

fold difference in affinity vs original [1]: 0.06 fold
fold difference in affinity vs original [2]: 0.06 fold
B31: C5A (XPA23) VH S54P (antibody, V domains shown)
VH: B1 VH with V51I, S54P
VL: B1 VL

fold difference in affinity vs original [1]: 1 fold
fold difference in affinity vs original [2]: 1 fold
B32: C5A (XPA23) VH S54V (antibody, V domains shown)
VH: B1 VH with V51I, S54V
VL: B1 VL

fold difference in affinity vs original [1]: 1.1 fold
fold difference in affinity vs original [2]: 1.1 fold
B34: C5A (XPA23) VH P53V (antibody, V domains shown)
VH: B1 VH with V51I, P53V
VL: B1 VL

fold difference in affinity vs original [1]: 0.86 fold
fold difference in affinity vs original [2]: 0.86 fold
B35: C5A (XPA23) VH S54I (antibody, V domains shown)
VH: B1 VH with V51I, S54I
VL: B1 VL

fold affinity vs original [1]: 1.07 fold
fold difference in affinity vs original [2]: 1.07 fold
B36: C5A (XPA23) VH S54W (antibody, V domains shown)
VH: B1 VH with V51I, S54W
VL: B1 VL

— patent US20110118447A1
